Experimental data taken from patent US8821943B2, “Methods and compositions for targeted delivery of therapeutic agents” (Board of Regents of the University of Nebraska, priority 2006, dated 2014).

Columns and labels:
[1] = tested on: excised bovine nasal tissue (MTA, MTP, ITP regions); assay: Nanoparticle transport and uptake across excised bovine nasal tissue (Ussing chambers); assay type: in vitro ADME; details: for Remaining in Donor / Total / Washes: mass balance; for Tissue Uptake / Transport: mass balance after 4 hr transport; for decrease in transport on co-treatment with free ligand / decrease in uptake on co-treatment with free ligand: m:s
Description: (§1) Transport studies were conducted in bovine nasal tissue. Bovine nasal tissue was obtained from freshly slaughtered cattle, and different regions (MTA, MTP, ITP) were prepared as described in Example 13. Nanoparticles coupled to deslorelin or transferring via aldehyde sulfate moieties were prepared as described in Example 3. The nanoparticle size was measured using a Zeta Plus Analyzer (Brookhaven Instruments Limited, UK). Particle size was analyzed before and after ligand conjugation in deionized filtered water.
The tissues were exposed to 5 ml of assay buffer with either peptide conjugated or plain nanoparticles on the donor side (mucosal or serosal surface). Assay buffer (5 ml) without particles was exposed to the receiver side (serosal or mucosal surface). The buffers used were pre-equilibrated to 37° C. or 4° C. The donor nanoparticle concentration was 20 or 100 μg/ml. […] Donor samples were collected at the beginning (replenished with particle stock suspension) and at the end of the experiment. The samples were collected in polypropylene tubes, capped, and stored at 4° C. until analysis. The aperture/tissue area exposed to the bathing fluids in this set up was 1.78 cm^2.
Nanoparticle Uptake: At the end of 4 hr in the above transport studies, the tissues exposed (1.78 cm^2) to the nanoparticle suspension were cut and washed thrice using 1 ml of assay buffer at pH 5. After the washes, the tissues were weighed and placed in 1 ml of 2% Triton-X 100™ and homogenized until a tissue suspension was formed using the Tissue Tearor™. The tissue debris was separated by centrifugation at 3000 rpm (Marathon Micro A, Fisher Scientific, Pittsburgh, Pa.) for 10 min. The supernatant was collected to analyze the amount of nanoparticles taken up by the tissue. Standard curves were prepared by homogenizing serial dilution of the stock solution with approximately 100-150 mg of nasal tissue. The homogenates were then centrifuged and the supernatant was analyzed.
Nanoparticle Transport and Uptake: Competition with Free Ligand: Similar to the transport and uptake studies mentioned above, the competition study was carried out using the modified Ussing chambers. The tissues were exposed to 20 μg/ml of nanoparticles conjugated with deslorelin or transferrin in the presence of 10 times (200 μg/ml) of plain deslorelin or transferrin in the donor chamber. Receiver samples were obtained at various intervals up to 4 hr and replaced with pre-warmed assay buffer. At the end of 4 hr the tissue region exposed to the nanoparticle preparation was cut and washed in assay buffer at pH 5. The tissues were then homogenized and centrifuged. The supernatants were analyzed to determine nanoparticle uptake.
Nanoparticle Quantification: The samples obtained from the transport studies, washes and supernatants of tissue homogenates were analyzed for nanoparticle content using a spectrofluorometer (Cary Eclipse, Varian Inc.). The excitation wavelength of 505 nm and an emission wavelength of 515 nm were used. Bandwidths of 3 or 5 nm were used for the sample analysis after dilution as required. The procedure used for extraction of the nanoparticles was performed as mentioned in the methods section under nanoparticle uptake. […] Briefly, similar amounts of tissues (weighed to match weight of tissues obtained from the transport experiment) were spiked with serially diluted stock nanoparticle suspensions (0.3 μg/ml-100 μg/ml) prepared in 2% Triton-X 100™. The tissues were homogenized, centrifuged and the supernatant obtained was used for standards. Standard curves were also prepared in assay buffer and acid wash buffer.

[2] = Particle size, polydispersity and zeta-potential by dynamic light scattering; assay type: physicochemical
Description: Nanoparticle carrier particles were formed by the methods of the preceding Example, and characterized as follows. The particle size and the zeta-potential were measured using Zeta Plus zeta-potential analyzer (Brookhaven Instruments Ltd., New York, N.Y.), which employs the dynamic light scattering technique for particle size measurement. The particle size and zeta-potential measurements were made after 1:1000 dilution of particle stock in filtered deionized water. Further, the particles were visualized using a transmission electron microscope (TEM). The carbon-coated grids were floated on a suspension droplet of plain or functionalized nanoparticles on a flexible plastic film (Parafilm, Pechiney Plastic Packaging, Neenah, Wis.) to allow the adsorption of nanoparticles onto the grid. After drying the particles, uranyl acetate was added as a negative stain to the carbon grid and allowed to react with the particles. This procedure makes the particles electron dense, allowing their visualization using an electron microscope. The particles were photographed using EM410 Phillips electron microscope (Eindhoven, The Netherlands) set at 60 kV and a magnification of 153000×.
Characterization of particles: The particle size and the zeta-potential were measured using ZetaPlus® zeta-potential analyzer, Brookhaven Instruments Ltd. (New York, N.Y.), which employs the dynamic light scattering technique for particle size measurement. The particle size and zeta-potential measurements were carried out after 1:1000 dilution of particle stock in filtered deionized water before lyophilization in filtered deionized water. The effective diameter of conjugated nanoparticles was higher than that of unconjugated nanoparticles.
Particle Size Analysis: Particle size and zeta-potential of the nanoparticles before and after conjugation following lyophilization were measured in double distilled water (100 μl of particle/1 ml of water) using dynamic light scattering (DLS). After lyophilization the plasmid loaded particles were weighed (1 mg) into glass Kimble tubes. To each tube, 1 ml of double distilled water was added and vortexed at high speed (Vortex Genie, Scientific Industries, Bohemia, N.Y.) till the particles were resuspended. The particle size and zeta potential was determined using dynamic light scattering after dilution (1:10 in double distilled water) (Brookhaven Instruments Corp., Holtsville, N.Y.). Nanoparticle size after lyophilization was 210.4±0.68 nm and zeta potential was −32.85±0.87 mV. Nanoparticle size and zeta potential was measured after conjugation with deslorelin and transferrin. Similarly, the unconjugated nanoparticles were also treated under the same conditions as with the conjugated nanoparticles (the conjugation protocol as mentioned above).
as §1

[3] = 20 μg/ml nanoparticles + 200 μg/ml free ligand, ITP
[4] = 20 μg/ml nanoparticles + 200 μg/ml free ligand, MTP

Transferrin-AS: transferrin-aldehyde sulphate-conjugated polystyrene nanoparticles
transport in the s:m direction greater than in the m:s direction ([1]; ITP): 10% | Remaining in Donor ([1]; ITP): 94.51 ± 1.10% | Total ([1]; ITP): 98.62 ± 1.13% | Washes ([1]; ITP): 0.75 ± 0.10% | Tissue Uptake ([1]; ITP): 3.98 ± 0.10% | Transport ([1]; ITP): 1.97 ± 0.05% | transport in the s:m direction greater than in the m:s direction ([1]; MTA): 16% | uptake, times higher than plain nanoparticles ([1]; MTA): 3.6 times | percent transport as well as uptake, times higher than deslorelin-nanoparticles ([1]; MTA, MTP and ITP regions): 1.3-1.4 times | Remaining in Donor ([1]; MTA): 93.06 ± 0.99% | Total ([1]; MTA): 98.77 ± 0.95% | Washes ([1]; MTA): 0.50 ± 0.13% | Tissue Uptake ([1]; MTA): 2.13 ± 0.13% | Transport ([1]; MTA): 1.13 ± 0.07% | transport in the s:m direction greater than in the m:s direction ([1]; MTP): 17% | uptake, times higher than plain nanoparticles ([1]; MTP): 2.9 times | Remaining in Donor ([1]; MTP): 92.14 ± 2.20% | Total ([1]; MTP): 98.99 ± 0.52% | Washes ([1]; MTP): 0.60 ± 0.11% | Tissue Uptake ([1]; MTP): 2.99 ± 0.14% | Transport ([1]; MTP): 1.52 ± 0.11% | decrease in uptake at 4° C. compared to 37° C. ([1]; m:s direction, ITP): 77% | percent transport, times higher than plain nanoparticles ([1]; m:s direction, ITP): ~1.8 times | decrease in uptake at 4° C. compared to 37° C. ([1]; m:s direction, MTA): 58% | percent transport, times higher than plain nanoparticles ([1]; m:s direction, MTA): approximately 3.3 times | decrease in uptake at 4° C. compared to 37° C. ([1]; m:s direction, MTP): 70% | percent transport, times higher than plain nanoparticles ([1]; m:s direction, MTP): ~2.1 times | decrease in transport on co-treatment with free ligand [1, 3]: 25% | decrease in uptake on co-treatment with free ligand [1, 3]: 44% | decrease in uptake on co-treatment with free ligand ([1]; 20 μg/ml nanoparticles + 200 μg/ml free ligand, MTA): 43% | decrease in transport on co-treatment with free ligand [1, 4]: 33% | decrease in uptake on co-treatment with free ligand [1, 4]: 45% | decrease in transport on co-treatment with free ligand ([1]; 20 μg/ml nanoparticles + 200 μg/ml plain deslorelin or transferrin, MTA): 22% | decrease in uptake at 4° C. compared to 37° C. ([1]; s:m direction, ITP): 80% | decrease in uptake at 4° C. compared to 37° C. ([1]; s:m direction, MTA): 65% | decrease in uptake at 4° C. compared to 37° C. ([1]; s:m direction, MTP): 75% | Zeta potential ([2]; Table 2, polystyrene nanoparticles): −20.62 ± 0.82 mV | Measured Diameter ([2]; Table 2, polystyrene nanoparticles, 1:1000 dilution in filtered deionized water, includes hydrodynamic layer, n = 3): 67.5 ± 1.0 nm | Zeta potential ([2]; Table 6): −20.62 ± 0.82 mV | Effective diameter ([2]; Table 6, 1:1000 dilution in filtered deionized water): 67.5 ± 1.0 nm
